Laboratory results taken from patent publication US20250276073A1 (Bicycle, published 2025).
Starred links: 1 amine or outer side, 2 acyl side, 3 side chain; linkers in the order of their positions; H or OH if unused. Positions of bridges follow the written chain, without caps; N, C: chain ends. Non-standard residues stand in square brackets, D forms with d. No end group written: not given here. TATB = O=C(C[*:1])N1CN(C(=O)C[*:2])CN(C(=O)C[*:3])C1; Gla = N[C@@H](CC(C(=O)O)C(=O)O)C(=O)O; Hyp = O=C(O)[C@@H]1C[C@@H](O)CN1; Tle = CC(C)(C)[C@H](N)C(=O)O

B1: BCY23208 (peptide)
peptide: CPXDAYLGCXSYCEPX
modifications: CP[HyP]DAYLGC[tBuGly]SYCEP[DOPA]: HyP at 3, tBuGly at 10, DOPA at 16; N-terminal acetyl; C-terminal CONH2; Cys 1, 9, 13 bonded to TATB scaffold
notes: Bicyclic peptide
B2: BCY23217 (peptide)
peptide: Ac-CP[Hyp][Gla]AYLGC[Tle]SYCEPW-NH2
modifications: linker 1-9-13 via TATB
SMILES: CC(=O)N[C@H]1CSCC(=O)N2CN3CN(C2)C(=O)CSC[C@@H](C(=O)N[C@@H](CCC(=O)O)C(=O)N2CCC[C@H]2C(=O)N[C@@H](Cc2c[nH]c4ccccc24)C(N)=O)NC(=O)[C@H](Cc2ccc(O)cc2)NC(=O)[C@H](CO)NC(=O)[C@H](C(C)(C)C)NC(=O)[C@H](CSCC3=O)NC(=O)CNC(=O)[C@H](CC(C)C)NC(=O)[C@H](Cc2ccc(O)cc2)NC(=O)[C@H](C)NC(=O)[C@H](CC(C(=O)O)C(=O)O)NC(=O)[C@@H]2C[C@@H](O)CN2C(=O)[C@@H]2CCCN2C1=O
notes: Bicyclic peptide
B3: BCY23205 (peptide)
peptide: CPXDAYLGCXSYCEXW
modifications: CP[HyP]DAYLGC[tBuGly]SYCE[Oxa]W: HyP at 3, tBuGly at 10, Oxa at 15; N-terminal acetyl; C-terminal CONH2; Cys 1, 9, 13 bonded to TATB scaffold
notes: Bicyclic peptide
B4: BCY23211 (peptide)
peptide: CPXDAYLGCXSYCEPX
modifications: CP[HyP]DAYLGC[tBuGly]SYCEP[hTyr]: HyP at 3, tBuGly at 10, hTyr at 16; N-terminal acetyl; C-terminal CONH2; Cys 1, 9, 13 bonded to TATB scaffold
notes: Bicyclic peptide
B5: BCY23203 (peptide)
peptide: CPXDAYLGCXSXCEPW
modifications: CP[HyP]DAYLGC[tBuGly]S[hTyr]CEPW: HyP at 3, tBuGly at 10, hTyr at 12; N-terminal acetyl; C-terminal CONH2; Cys 1, 9, 13 bonded to TATB scaffold
notes: Bicyclic peptide
B6: BCY23182 (peptide)
peptide: CXXDAYLGCXSYCEPW
modifications: C[Cis-HyP][HyP]DAYLGC[tBuGly]SYCEPW: Cis-HyP at 2, HyP at 3, tBuGly at 10; N-terminal acetyl; C-terminal CONH2; Cys 1, 9, 13 bonded to TATB scaffold
notes: Bicyclic peptide
B7: BCY23204 (peptide)
peptide: CPXDAYLGCXSYCEXW
modifications: CP[HyP]DAYLGC[tBuGly]SYCE[HyP]W: HyP at 3 and 15, tBuGly at 10; N-terminal acetyl; C-terminal CONH2; Cys 1, 9, 13 bonded to TATB scaffold
notes: Bicyclic peptide
B8: BCY23202 (peptide)
peptide: CPXDAYLGCXSXCEPW
modifications: CP[HyP]DAYLGC[tBuGly]S[pCoPhe]CEPW: HyP at 3, tBuGly at 10, pCoPhe at 12; N-terminal acetyl; C-terminal CONH2; Cys 1, 9, 13 bonded to TATB scaffold
notes: Bicyclic peptide
B9: BCY23231 (peptide)
peptide: CPXDAYLGCXSYCXPW
modifications: CP[HyP]DAYLGC[tBuGly]SYC[Gla]PW: HyP at 3, tBuGly at 10, Gla at 14; N-terminal acetyl; C-terminal CONH2; Cys 1, 9, 13 bonded to TATB scaffold
notes: Bicyclic peptide
B10: BCY23184 (peptide)
peptide: CPXDAYLGCXSYCEPW
modifications: CP[Cis-HyP]DAYLGC[tBuGly]SYCEPW: Cis-HyP at 3, tBuGly at 10; N-terminal acetyl; C-terminal CONH2; Cys 1, 9, 13 bonded to TATB scaffold
notes: Bicyclic peptide
B11: BCY23230 (peptide)
peptide: CPXDAYLGCXSYCDPW
modifications: CP[HyP]DAYLGC[tBuGly]SYCDPW: HyP at 3, tBuGly at 10; N-terminal acetyl; C-terminal CONH2; Cys 1, 9, 13 bonded to TATB scaffold
notes: Bicyclic peptide
B12: BCY23219 (peptide)
peptide: Ac-CP[Hyp]DAYTGC[Tle]SYCEPW-NH2
modifications: linker 1-9-13 via TATB
SMILES: CC(=O)N[C@H]1CSCC(=O)N2CN3CN(C2)C(=O)CSC[C@@H](C(=O)N[C@@H](CCC(=O)O)C(=O)N2CCC[C@H]2C(=O)N[C@@H](Cc2c[nH]c4ccccc24)C(N)=O)NC(=O)[C@H](Cc2ccc(O)cc2)NC(=O)[C@H](CO)NC(=O)[C@H](C(C)(C)C)NC(=O)[C@H](CSCC3=O)NC(=O)CNC(=O)[C@H]([C@@H](C)O)NC(=O)[C@H](Cc2ccc(O)cc2)NC(=O)[C@H](C)NC(=O)[C@H](CC(=O)O)NC(=O)[C@@H]2C[C@@H](O)CN2C(=O)[C@@H]2CCCN2C1=O
notes: Bicyclic peptide
B13: BCY23216 (peptide)
peptide: Ac-CP[Hyp]EAYLGC[Tle]SYCEPW-NH2
modifications: linker 1-9-13 via TATB
SMILES: CC(=O)N[C@H]1CSCC(=O)N2CN3CN(C2)C(=O)CSC[C@@H](C(=O)N[C@@H](CCC(=O)O)C(=O)N2CCC[C@H]2C(=O)N[C@@H](Cc2c[nH]c4ccccc24)C(N)=O)NC(=O)[C@H](Cc2ccc(O)cc2)NC(=O)[C@H](CO)NC(=O)[C@H](C(C)(C)C)NC(=O)[C@H](CSCC3=O)NC(=O)CNC(=O)[C@H](CC(C)C)NC(=O)[C@H](Cc2ccc(O)cc2)NC(=O)[C@H](C)NC(=O)[C@H](CCC(=O)O)NC(=O)[C@@H]2C[C@@H](O)CN2C(=O)[C@@H]2CCCN2C1=O
notes: Bicyclic peptide
B14: BCY23221 (peptide)
peptide: Ac-CP[Hyp]DAYEGC[Tle]SYCEPW-NH2
modifications: linker 1-9-13 via TATB
SMILES: CC(=O)N[C@H]1CSCC(=O)N2CN3CN(C2)C(=O)CSC[C@@H](C(=O)N[C@@H](CCC(=O)O)C(=O)N2CCC[C@H]2C(=O)N[C@@H](Cc2c[nH]c4ccccc24)C(N)=O)NC(=O)[C@H](Cc2ccc(O)cc2)NC(=O)[C@H](CO)NC(=O)[C@H](C(C)(C)C)NC(=O)[C@H](CSCC3=O)NC(=O)CNC(=O)[C@H](CCC(=O)O)NC(=O)[C@H](Cc2ccc(O)cc2)NC(=O)[C@H](C)NC(=O)[C@H](CC(=O)O)NC(=O)[C@@H]2C[C@@H](O)CN2C(=O)[C@@H]2CCCN2C1=O
notes: Bicyclic peptide
B15: BCY23218 (peptide)
peptide: Ac-CP[Hyp]DAYSGC[Tle]SYCEPW-NH2
modifications: linker 1-9-13 via TATB
SMILES: CC(=O)N[C@H]1CSCC(=O)N2CN3CN(C2)C(=O)CSC[C@@H](C(=O)N[C@@H](CCC(=O)O)C(=O)N2CCC[C@H]2C(=O)N[C@@H](Cc2c[nH]c4ccccc24)C(N)=O)NC(=O)[C@H](Cc2ccc(O)cc2)NC(=O)[C@H](CO)NC(=O)[C@H](C(C)(C)C)NC(=O)[C@H](CSCC3=O)NC(=O)CNC(=O)[C@H](CO)NC(=O)[C@H](Cc2ccc(O)cc2)NC(=O)[C@H](C)NC(=O)[C@H](CC(=O)O)NC(=O)[C@@H]2C[C@@H](O)CN2C(=O)[C@@H]2CCCN2C1=O
notes: Bicyclic peptide
B16: BCY23222 (peptide)
peptide: Ac-CP[Hyp]DAYNGC[Tle]SYCEPW-NH2
modifications: linker 1-9-13 via TATB
SMILES: CC(=O)N[C@H]1CSCC(=O)N2CN3CN(C2)C(=O)CSC[C@@H](C(=O)N[C@@H](CCC(=O)O)C(=O)N2CCC[C@H]2C(=O)N[C@@H](Cc2c[nH]c4ccccc24)C(N)=O)NC(=O)[C@H](Cc2ccc(O)cc2)NC(=O)[C@H](CO)NC(=O)[C@H](C(C)(C)C)NC(=O)[C@H](CSCC3=O)NC(=O)CNC(=O)[C@H](CC(N)=O)NC(=O)[C@H](Cc2ccc(O)cc2)NC(=O)[C@H](C)NC(=O)[C@H](CC(=O)O)NC(=O)[C@@H]2C[C@@H](O)CN2C(=O)[C@@H]2CCCN2C1=O
notes: Bicyclic peptide
B17: BCY23220 (peptide)
peptide: Ac-CP[Hyp]DAYDGC[Tle]SYCEPW-NH2
modifications: linker 1-9-13 via TATB
SMILES: CC(=O)N[C@H]1CSCC(=O)N2CN3CN(C2)C(=O)CSC[C@@H](C(=O)N[C@@H](CCC(=O)O)C(=O)N2CCC[C@H]2C(=O)N[C@@H](Cc2c[nH]c4ccccc24)C(N)=O)NC(=O)[C@H](Cc2ccc(O)cc2)NC(=O)[C@H](CO)NC(=O)[C@H](C(C)(C)C)NC(=O)[C@H](CSCC3=O)NC(=O)CNC(=O)[C@H](CC(=O)O)NC(=O)[C@H](Cc2ccc(O)cc2)NC(=O)[C@H](C)NC(=O)[C@H](CC(=O)O)NC(=O)[C@@H]2C[C@@H](O)CN2C(=O)[C@@H]2CCCN2C1=O
notes: Bicyclic peptide
B18: BCY23223 (peptide)
peptide: CP[Hyp]DAYQGC[Tle]SYCEPW-NH2
modifications: linker 1-9-13 via TATB; not fully specified (N-terminus); printed as CP[HyP]DAYQGC[tBuGly]SYCEPW
notes: Bicyclic peptide
B19: BCY23207 (peptide)
peptide: CPXDAYLGCXSYCEPY
modifications: CP[HyP]DAYLGC[tBuGly]SYCEPY: HyP at 3, tBuGly at 10; N-terminal acetyl; C-terminal CONH2; Cys 1, 9, 13 bonded to TATB scaffold
notes: Bicyclic peptide
B20: BCY23180 (peptide)
peptide: CXXDAYLGCXSYCEPW
modifications: not fully specified; C[HyP][HyP]DAYLGC[tBuGly]SYCEPW: HyP at 2 and 3, tBuGly at 10; N-terminal acetyl; C-terminal CONH2; Cys 1, 9, 13 bonded to TATB scaffold
notes: Bicyclic peptide
B21: BCY23210 (peptide)
peptide: CPXDAYLGCXSYCEPX
modifications: CP[HyP]DAYLGC[tBuGly]SYCEP[pCoPhe]: HyP at 3, tBuGly at 10, pCoPhe at 16; N-terminal acetyl; C-terminal CONH2; Cys 1, 9, 13 bonded to TATB scaffold
notes: Bicyclic peptide
B22: BCY23224 (peptide)
peptide: CPXDAYLGCXXYCEPW
modifications: CP[HyP]DAYLGC[tBuGly][HSer]YCEPW: HyP at 3, tBuGly at 10, HSer at 11; N-terminal acetyl; C-terminal CONH2; Cys 1, 9, 13 bonded to TATB scaffold
notes: Bicyclic peptide
B23: BCY23209 (peptide)
peptide: CPXDAYLGCXSYCEPX
modifications: CP[HyP]DAYLGC[tBuGly]SYCEP[pCaPhe]: HyP at 3, tBuGly at 10, pCaPhe at 16; N-terminal acetyl; C-terminal CONH2; Cys 1, 9, 13 bonded to TATB scaffold
notes: Bicyclic peptide

molecular target: T1, Recombinant human His-tagged TfR1 (a.a. 89-760) (ACRO Biosystems, CD1-H5243) (human, UniProt P02786 89-760); assay: SPR (Biacore), TfR1 captured/coupled on NTA chip, peptide as analyte
T1 construct: range 89-760; Bought protein; Captured and amine-coupled on an NTA chip; also called human TfR1; transferrin receptor 1; not shown: His tag (printed 'Hiss-tagged')
T1 sequence (P02786 89-760 limits assumed): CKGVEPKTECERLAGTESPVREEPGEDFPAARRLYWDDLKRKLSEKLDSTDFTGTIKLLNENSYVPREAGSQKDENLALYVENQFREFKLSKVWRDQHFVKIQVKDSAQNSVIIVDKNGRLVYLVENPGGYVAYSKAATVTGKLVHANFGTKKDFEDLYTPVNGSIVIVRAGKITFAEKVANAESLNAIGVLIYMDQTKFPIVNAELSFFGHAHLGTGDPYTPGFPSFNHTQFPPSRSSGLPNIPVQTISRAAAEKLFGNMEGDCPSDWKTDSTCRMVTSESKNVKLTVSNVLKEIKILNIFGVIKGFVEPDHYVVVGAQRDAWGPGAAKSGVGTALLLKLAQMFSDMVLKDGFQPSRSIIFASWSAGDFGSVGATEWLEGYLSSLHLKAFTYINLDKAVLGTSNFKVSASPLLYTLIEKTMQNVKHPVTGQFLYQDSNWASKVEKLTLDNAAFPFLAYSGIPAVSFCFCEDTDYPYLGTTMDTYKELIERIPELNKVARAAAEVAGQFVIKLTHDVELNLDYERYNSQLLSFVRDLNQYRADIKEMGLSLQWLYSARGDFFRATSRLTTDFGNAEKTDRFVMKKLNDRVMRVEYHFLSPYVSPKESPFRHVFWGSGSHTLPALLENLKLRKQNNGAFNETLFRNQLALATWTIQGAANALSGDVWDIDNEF

Row | Binder | Kd
1 | B1 | 6 nM
2 | B2 | 117 nM
3 | B3 | 11 nM
4 | B4 | 7.7 nM
5 | B5 | 283 nM
6 | B6 | 22 nM
7 | B7 | 9 nM
8 | B8 | 23 nM
9 | B9 | 25 nM
10 | B10 | 13 nM
11 | B11 | 15 nM
12 | B12 | 51 nM
13 | B13 | 158 nM
14 | B14 | 120 nM
15 | B15 | 55 nM
16 | B16 | 58 nM
17 | B17 | 72 nM
18 | B18 | 50 nM
19 | B19 | 7.7 nM
20 | B20 | 50 nM
21 | B21 | 8.6 nM
22 | B22 | 1140 nM
23 | B23 | 5.6 nM
